Experimental data taken from paper PMC12170339, “Cryo-EM structure of the NDH–PSI–LHCI supercomplex from Spinacia oleracea” (Nature Structural & Molecular Biology, 2025).

T1: NdhH (S. oleracea, UniProt Q9M3I5 1-393)
T1 construct: NdhH, SubA module of chloroplast NDH, S. oleracea; source: purified from spinach (S. oleracea) leaves as part of the NDH–PSI–LHCI-2 supercomplex
T1 sequence (looked up): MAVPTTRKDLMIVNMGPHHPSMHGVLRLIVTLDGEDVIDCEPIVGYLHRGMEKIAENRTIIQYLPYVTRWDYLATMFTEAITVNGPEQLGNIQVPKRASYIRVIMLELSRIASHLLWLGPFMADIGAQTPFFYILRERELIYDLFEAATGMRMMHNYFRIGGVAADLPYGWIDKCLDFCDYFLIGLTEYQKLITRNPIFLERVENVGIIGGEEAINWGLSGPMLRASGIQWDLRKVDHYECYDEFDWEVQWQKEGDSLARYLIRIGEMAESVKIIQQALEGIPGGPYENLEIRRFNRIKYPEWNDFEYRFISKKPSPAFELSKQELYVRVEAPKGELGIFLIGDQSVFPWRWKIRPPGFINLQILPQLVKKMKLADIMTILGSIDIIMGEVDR

T2: NdhK (S. oleracea, UniProt Q9M3M0 1-227)
T2 construct: NdhK, SubA module of chloroplast NDH, S. oleracea; source: purified from spinach (S. oleracea) leaves as part of the NDH–PSI–LHCI-2 supercomplex
T2 sequence (looked up): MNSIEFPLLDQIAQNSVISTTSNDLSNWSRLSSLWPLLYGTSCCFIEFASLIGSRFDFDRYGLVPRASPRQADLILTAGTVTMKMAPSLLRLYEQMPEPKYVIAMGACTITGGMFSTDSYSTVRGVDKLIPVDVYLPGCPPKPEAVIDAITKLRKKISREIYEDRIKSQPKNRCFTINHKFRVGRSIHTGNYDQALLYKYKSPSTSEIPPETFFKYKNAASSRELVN

B1: NdhA (natural protein, S. oleracea, UniProt Q9M3I6 1-365, looked up)
chain: MIIDTTTTKVQAINSFSRLEFLKEVYETIWMLFPILILVLGITIGVLVIVWLEREISASIQQRIGPEYAGPLGILQALADGTKLLFKENLLPSRGDTYLFSIGPSIAVISILLGYLIIPFGSRLVLADLSIGVFLWIAVSSIAPIGLLMSGYGSNNKYSFLGGLRAAAQSISYEIPLTLCVLSISLLSNSSSTVDIVEAQSKYGFWGWNLWRQPIGFIVFIISSLAECERLPFDLPEAEEELVAGYQTEYSGIKFGLFYVASYLNLLISSLFVTVLYLGGWNLSIPYIFISEFFEINKIDGVFGTTIGIFITLAKTFLFLFIPITTRWTLPRLRMDQLLNLGWKFLLPISLGNLLLTTSSQLFSL
notes: NdhA, SubM module of chloroplast NDH, S. oleracea; also called NhdA; source: purified from spinach (S. oleracea) leaves as part of the NDH–PSI–LHCI-2 supercomplex

What was measured:
Assay in all cases: cryo-EM structure; single-particle cryo-EM of the endogenous NDH–PSI–LHCI-2 supercomplex co-purified from spinach stromal lamellae in t-PCCαM; buffer A: 30 mM HEPES pH 7.8, 2 mM MgCl2, 2 mM KCl, 0.5 mM Na2-EDTA, 100 mM NaCl, 2 mM DTT, 0.04% t-PCCαM; 38,385 particles; 3.0–3.3 Å
[1] = target: NADPH dehydrogenase (NDH) complex (S. oleracea) (UniProt Q9M3I6)
[2] = target: B1; settings: both partners purified
[3] = target: T1, NdhH; settings: both partners purified
[4] = target: T2, NdhK; settings: both partners purified

| stoichiometry N (NDH per PSI–LHCI) [1] | binding result [2] | binding result [3] | binding result [4] | Molecule |
| --- | --- | --- | --- | --- |
| 1 | – | – | – | PSI–LHCI-2 (photosystem I–light-harvesting complex I) (from UniProt P06511 1-750; P06512 1-734; P10098 1-81; P12353 51-212; P12355 78-231; P12357 70-167; P22179 50-144; P17228 1-33; P17230 1-44; P14627 1-29; Q41385 48-216) |
| – | binds | binds | binds | NdhC (natural protein, S. oleracea, UniProt Q9M3L9 1-120, looked up, NdhC, SubM module of chloroplast NDH, S. oleracea; source: purified from spinach (S. oleracea) leaves as part of the NDH–PSI–LHCI-2 supercomplex) MFLLYEYDIFWAFLIISSVIPILAFLFSGILAPISKGPEKLSSYESGIEPMGDAWLQFRIRYYMFALVFVVFDVETVFLYPWAMSFDILGVSVFIEALIFVLILIVGLVYAWRKGALEWS |
| – | – | binds | – | B1 |
